The target of this experiment is FcγRIIa H (human, UniProt P12318 34-217). In words: SPR Biacore, captured antibody, FcγR analyte; vs GpH7-B3/GpL16-k0 = 100.
Sequence of FcγRIIa H (P12318 34-217): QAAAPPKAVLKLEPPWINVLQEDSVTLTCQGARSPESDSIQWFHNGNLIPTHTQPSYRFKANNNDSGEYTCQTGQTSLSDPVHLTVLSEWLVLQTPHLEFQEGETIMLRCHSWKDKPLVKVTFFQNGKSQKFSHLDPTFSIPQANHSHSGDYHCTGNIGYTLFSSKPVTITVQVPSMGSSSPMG

B1: GpH7-B3 variant K326_01G/GpL16-k0 (antibody, human IgG1, kappa)
heavy: not shown
light: DIVMTQSPLSLPVTPGEPASISCQASESLVHSNRNTYLHWYLQKPGQSPQLLIYKVSNRFSGVPDRFSGSGSGTDFTLKISRVEAEDVGVYYCSQNTHVPPTFGQGTKVEIERTVAAPSVFIFPPSDEQLKSGTASVVCLLNNFYPREAKVQWKVDNALQSGNSQESVTEQDSKDSTYSLSSTLTLSKADYEKHKVYACEVTHQGLSSPVTKSFNRGEC
notes: also called Ho Ab K326_01G
B1: the Ho/Con_2aH was 98.2 % of control.

B2: GpH7-B3 variant K334_13S/GpL16-k0 (antibody, human IgG1, kappa)
heavy: not shown
light: DIVMTQSPLSLPVTPGEPASISCQASESLVHSNRNTYLHWYLQKPGQSPQLLIYKVSNRFSGVPDRFSGSGSGTDFTLKISRVEAEDVGVYYCSQNTHVPPTFGQGTKVEIERTVAAPSVFIFPPSDEQLKSGTASVVCLLNNFYPREAKVQWKVDNALQSGNSQESVTEQDSKDSTYSLSSTLTLSKADYEKHKVYACEVTHQGLSSPVTKSFNRGEC
notes: also called Ho Ab K334_13S
Turning to B2, the Ho/Con_2aH is 94.9 % of control.

B3: GpH7-B3 variant S337_08L/GpL16-k0 (antibody, human IgG1, kappa)
heavy: not shown
light: DIVMTQSPLSLPVTPGEPASISCQASESLVHSNRNTYLHWYLQKPGQSPQLLIYKVSNRFSGVPDRFSGSGSGTDFTLKISRVEAEDVGVYYCSQNTHVPPTFGQGTKVEIERTVAAPSVFIFPPSDEQLKSGTASVVCLLNNFYPREAKVQWKVDNALQSGNSQESVTEQDSKDSTYSLSSTLTLSKADYEKHKVYACEVTHQGLSSPVTKSFNRGEC
notes: also called Ho Ab S337_08L
Take B3: the Ho/Con_2aH is 93.1 % of control.

B4: GpH7-B3 variant S239_10E/GpL16-k0 (antibody, human IgG1, kappa)
heavy: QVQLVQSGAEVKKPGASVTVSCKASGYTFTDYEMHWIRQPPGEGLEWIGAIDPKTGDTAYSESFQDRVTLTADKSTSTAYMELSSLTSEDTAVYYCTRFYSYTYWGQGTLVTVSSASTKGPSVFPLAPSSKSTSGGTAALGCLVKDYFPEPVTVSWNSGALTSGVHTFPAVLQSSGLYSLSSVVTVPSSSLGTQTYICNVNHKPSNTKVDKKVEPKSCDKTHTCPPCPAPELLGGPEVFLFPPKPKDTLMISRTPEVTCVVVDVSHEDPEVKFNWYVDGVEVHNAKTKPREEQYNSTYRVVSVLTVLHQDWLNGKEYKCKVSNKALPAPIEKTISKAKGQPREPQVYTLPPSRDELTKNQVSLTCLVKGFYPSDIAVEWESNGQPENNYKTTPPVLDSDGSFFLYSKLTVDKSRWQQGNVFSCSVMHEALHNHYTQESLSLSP
light: DIVMTQSPLSLPVTPGEPASISCQASESLVHSNRNTYLHWYLQKPGQSPQLLIYKVSNRFSGVPDRFSGSGSGTDFTLKISRVEAEDVGVYYCSQNTHVPPTFGQGTKVEIERTVAAPSVFIFPPSDEQLKSGTASVVCLLNNFYPREAKVQWKVDNALQSGNSQESVTEQDSKDSTYSLSSTLTLSKADYEKHKVYACEVTHQGLSSPVTKSFNRGEC
notes: also called Ho Ab S239_10E
For B4, the Ho/Con_2aH is 91.4 % of control.

B5: GpH7-B3 variant V266_08L/GpL16-k0 (antibody, human IgG1, kappa)
heavy: not shown
light: DIVMTQSPLSLPVTPGEPASISCQASESLVHSNRNTYLHWYLQKPGQSPQLLIYKVSNRFSGVPDRFSGSGSGTDFTLKISRVEAEDVGVYYCSQNTHVPPTFGQGTKVEIERTVAAPSVFIFPPSDEQLKSGTASVVCLLNNFYPREAKVQWKVDNALQSGNSQESVTEQDSKDSTYSLSSTLTLSKADYEKHKVYACEVTHQGLSSPVTKSFNRGEC
notes: also called Ho Ab V266_08L
B5: the Ho/Con_2aH was 91.5 % of control.

B6: GpH7-B3 variant S267_09D/GpL16-k0 (antibody, human IgG1, kappa)
heavy: not shown
light: DIVMTQSPLSLPVTPGEPASISCQASESLVHSNRNTYLHWYLQKPGQSPQLLIYKVSNRFSGVPDRFSGSGSGTDFTLKISRVEAEDVGVYYCSQNTHVPPTFGQGTKVEIERTVAAPSVFIFPPSDEQLKSGTASVVCLLNNFYPREAKVQWKVDNALQSGNSQESVTEQDSKDSTYSLSSTLTLSKADYEKHKVYACEVTHQGLSSPVTKSFNRGEC
notes: also called Ho Ab S267_09D
Regarding B6, the Ho/Con_2aH is 91.5 % of control.

B7: GpH7-B3 variant S337_20W/GpL16-k0 (antibody, human IgG1, kappa)
heavy: not shown
light: DIVMTQSPLSLPVTPGEPASISCQASESLVHSNRNTYLHWYLQKPGQSPQLLIYKVSNRFSGVPDRFSGSGSGTDFTLKISRVEAEDVGVYYCSQNTHVPPTFGQGTKVEIERTVAAPSVFIFPPSDEQLKSGTASVVCLLNNFYPREAKVQWKVDNALQSGNSQESVTEQDSKDSTYSLSSTLTLSKADYEKHKVYACEVTHQGLSSPVTKSFNRGEC
notes: also called Ho Ab S337_20W
Take B7: the Ho/Con_2aH was 96.6 % of control.

B8: GpH7-B3 variant L234_04F/GpL16-k0 (antibody, human IgG1, kappa)
heavy: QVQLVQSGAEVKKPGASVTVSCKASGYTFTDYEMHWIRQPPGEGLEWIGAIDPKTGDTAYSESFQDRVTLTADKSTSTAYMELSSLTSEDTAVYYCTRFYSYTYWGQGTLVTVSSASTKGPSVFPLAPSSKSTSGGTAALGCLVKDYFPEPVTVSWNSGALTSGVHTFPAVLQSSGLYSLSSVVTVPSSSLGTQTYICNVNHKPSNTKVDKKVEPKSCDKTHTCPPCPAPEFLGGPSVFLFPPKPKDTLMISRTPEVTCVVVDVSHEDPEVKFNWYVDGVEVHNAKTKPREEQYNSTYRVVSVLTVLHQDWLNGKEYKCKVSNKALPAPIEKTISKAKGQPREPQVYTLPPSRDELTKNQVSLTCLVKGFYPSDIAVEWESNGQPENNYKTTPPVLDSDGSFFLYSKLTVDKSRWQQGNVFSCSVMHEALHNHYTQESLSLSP
light: DIVMTQSPLSLPVTPGEPASISCQASESLVHSNRNTYLHWYLQKPGQSPQLLIYKVSNRFSGVPDRFSGSGSGTDFTLKISRVEAEDVGVYYCSQNTHVPPTFGQGTKVEIERTVAAPSVFIFPPSDEQLKSGTASVVCLLNNFYPREAKVQWKVDNALQSGNSQESVTEQDSKDSTYSLSSTLTLSKADYEKHKVYACEVTHQGLSSPVTKSFNRGEC
notes: also called Ho Ab L234_04F
Regarding B8, the Ho/Con_2aH is 54.2 % of control.

B9: GpH7-B3 variant Y296_09D/GpL16-k0 (antibody, human IgG1, kappa)
heavy: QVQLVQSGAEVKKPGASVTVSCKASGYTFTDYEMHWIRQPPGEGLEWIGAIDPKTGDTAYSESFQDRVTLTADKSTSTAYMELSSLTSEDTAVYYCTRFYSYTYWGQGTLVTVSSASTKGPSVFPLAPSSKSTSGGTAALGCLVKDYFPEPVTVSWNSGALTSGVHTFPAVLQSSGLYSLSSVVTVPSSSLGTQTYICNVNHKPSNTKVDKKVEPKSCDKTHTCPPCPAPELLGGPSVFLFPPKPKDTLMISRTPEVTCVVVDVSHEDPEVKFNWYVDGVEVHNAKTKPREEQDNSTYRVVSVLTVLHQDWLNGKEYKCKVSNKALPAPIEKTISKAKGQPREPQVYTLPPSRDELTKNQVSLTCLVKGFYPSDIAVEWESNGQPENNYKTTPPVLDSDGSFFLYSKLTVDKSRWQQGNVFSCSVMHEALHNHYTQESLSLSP
light: DIVMTQSPLSLPVTPGEPASISCQASESLVHSNRNTYLHWYLQKPGQSPQLLIYKVSNRFSGVPDRFSGSGSGTDFTLKISRVEAEDVGVYYCSQNTHVPPTFGQGTKVEIERTVAAPSVFIFPPSDEQLKSGTASVVCLLNNFYPREAKVQWKVDNALQSGNSQESVTEQDSKDSTYSLSSTLTLSKADYEKHKVYACEVTHQGLSSPVTKSFNRGEC
notes: also called Ho Ab Y296_09D
On to B9, for which the Ho/Con_2aH is 99.9 % of control.

B10: GpH7-B3 variant S239_08L/GpL16-k0 (antibody, human IgG1, kappa)
heavy: not shown
light: DIVMTQSPLSLPVTPGEPASISCQASESLVHSNRNTYLHWYLQKPGQSPQLLIYKVSNRFSGVPDRFSGSGSGTDFTLKISRVEAEDVGVYYCSQNTHVPPTFGQGTKVEIERTVAAPSVFIFPPSDEQLKSGTASVVCLLNNFYPREAKVQWKVDNALQSGNSQESVTEQDSKDSTYSLSSTLTLSKADYEKHKVYACEVTHQGLSSPVTKSFNRGEC
notes: also called Ho Ab S239_08L
Turning to B10, the Ho/Con_2aH is 87 % of control.

B11: GpH7-B3 variant K334_19Q/GpL16-k0 (antibody, human IgG1, kappa)
heavy: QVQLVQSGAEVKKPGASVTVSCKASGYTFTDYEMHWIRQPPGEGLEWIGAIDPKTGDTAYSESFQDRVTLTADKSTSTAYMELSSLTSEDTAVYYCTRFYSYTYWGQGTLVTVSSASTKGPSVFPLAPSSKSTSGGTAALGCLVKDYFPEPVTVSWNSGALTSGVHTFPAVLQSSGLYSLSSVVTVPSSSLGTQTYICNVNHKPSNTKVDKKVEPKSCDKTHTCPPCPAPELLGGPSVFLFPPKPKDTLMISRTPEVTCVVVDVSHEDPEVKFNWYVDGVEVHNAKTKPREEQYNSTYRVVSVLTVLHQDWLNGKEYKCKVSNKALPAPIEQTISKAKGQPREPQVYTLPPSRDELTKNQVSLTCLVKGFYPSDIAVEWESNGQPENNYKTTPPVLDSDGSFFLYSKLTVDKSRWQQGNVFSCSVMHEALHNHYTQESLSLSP
light: DIVMTQSPLSLPVTPGEPASISCQASESLVHSNRNTYLHWYLQKPGQSPQLLIYKVSNRFSGVPDRFSGSGSGTDFTLKISRVEAEDVGVYYCSQNTHVPPTFGQGTKVEIERTVAAPSVFIFPPSDEQLKSGTASVVCLLNNFYPREAKVQWKVDNALQSGNSQESVTEQDSKDSTYSLSSTLTLSKADYEKHKVYACEVTHQGLSSPVTKSFNRGEC
notes: also called Ho Ab K334_19Q
Take B11: the Ho/Con_2aH was 97.2 % of control.

B12: GpH7-B3 variant L234_15Y/GpL16-k0 (antibody, human IgG1, kappa)
heavy: not shown
light: DIVMTQSPLSLPVTPGEPASISCQASESLVHSNRNTYLHWYLQKPGQSPQLLIYKVSNRFSGVPDRFSGSGSGTDFTLKISRVEAEDVGVYYCSQNTHVPPTFGQGTKVEIERTVAAPSVFIFPPSDEQLKSGTASVVCLLNNFYPREAKVQWKVDNALQSGNSQESVTEQDSKDSTYSLSSTLTLSKADYEKHKVYACEVTHQGLSSPVTKSFNRGEC
notes: also called Ho Ab L234_15Y
Regarding B12, the Ho/Con_2aH is 43.8 % of control.

B13: GpH7-B3 variant Y296_16H/GpL16-k0 (antibody, human IgG1, kappa)
heavy: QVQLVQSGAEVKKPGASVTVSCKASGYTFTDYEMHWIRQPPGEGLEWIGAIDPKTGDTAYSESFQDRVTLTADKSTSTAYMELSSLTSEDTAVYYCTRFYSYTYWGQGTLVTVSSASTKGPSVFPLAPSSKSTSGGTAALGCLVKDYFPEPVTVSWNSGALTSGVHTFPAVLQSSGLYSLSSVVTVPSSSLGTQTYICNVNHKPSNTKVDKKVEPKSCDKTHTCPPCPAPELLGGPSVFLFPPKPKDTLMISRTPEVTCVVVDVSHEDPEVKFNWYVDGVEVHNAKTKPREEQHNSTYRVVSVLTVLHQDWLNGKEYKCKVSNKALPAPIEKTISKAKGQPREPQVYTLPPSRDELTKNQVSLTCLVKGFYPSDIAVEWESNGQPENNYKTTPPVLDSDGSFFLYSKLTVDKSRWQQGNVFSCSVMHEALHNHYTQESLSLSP
light: DIVMTQSPLSLPVTPGEPASISCQASESLVHSNRNTYLHWYLQKPGQSPQLLIYKVSNRFSGVPDRFSGSGSGTDFTLKISRVEAEDVGVYYCSQNTHVPPTFGQGTKVEIERTVAAPSVFIFPPSDEQLKSGTASVVCLLNNFYPREAKVQWKVDNALQSGNSQESVTEQDSKDSTYSLSSTLTLSKADYEKHKVYACEVTHQGLSSPVTKSFNRGEC
notes: also called Ho Ab Y296_16H
Regarding B13, the Ho/Con_2aH is 85.7 % of control.

B14: GpH7-B3 variant K326_07I/GpL16-k0 (antibody, human IgG1, kappa)
heavy: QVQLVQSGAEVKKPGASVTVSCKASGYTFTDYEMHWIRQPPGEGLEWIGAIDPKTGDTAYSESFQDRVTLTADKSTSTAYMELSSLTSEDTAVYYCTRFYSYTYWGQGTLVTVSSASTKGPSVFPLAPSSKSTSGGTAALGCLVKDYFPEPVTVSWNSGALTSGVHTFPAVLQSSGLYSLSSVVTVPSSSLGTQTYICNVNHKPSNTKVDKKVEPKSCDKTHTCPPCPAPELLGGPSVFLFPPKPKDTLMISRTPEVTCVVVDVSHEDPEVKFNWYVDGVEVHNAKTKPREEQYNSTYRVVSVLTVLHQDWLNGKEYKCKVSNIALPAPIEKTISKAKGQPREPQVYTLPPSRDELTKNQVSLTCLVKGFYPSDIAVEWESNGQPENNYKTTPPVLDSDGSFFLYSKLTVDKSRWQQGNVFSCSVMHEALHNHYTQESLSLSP
light: DIVMTQSPLSLPVTPGEPASISCQASESLVHSNRNTYLHWYLQKPGQSPQLLIYKVSNRFSGVPDRFSGSGSGTDFTLKISRVEAEDVGVYYCSQNTHVPPTFGQGTKVEIERTVAAPSVFIFPPSDEQLKSGTASVVCLLNNFYPREAKVQWKVDNALQSGNSQESVTEQDSKDSTYSLSSTLTLSKADYEKHKVYACEVTHQGLSSPVTKSFNRGEC
notes: also called Ho Ab K326_07I
Take B14: the Ho/Con_2aH was 78.1 % of control.

B15: GpH7-B3 variant T335_18N/GpL16-k0 (antibody, human IgG1, kappa)
heavy: not shown
light: DIVMTQSPLSLPVTPGEPASISCQASESLVHSNRNTYLHWYLQKPGQSPQLLIYKVSNRFSGVPDRFSGSGSGTDFTLKISRVEAEDVGVYYCSQNTHVPPTFGQGTKVEIERTVAAPSVFIFPPSDEQLKSGTASVVCLLNNFYPREAKVQWKVDNALQSGNSQESVTEQDSKDSTYSLSSTLTLSKADYEKHKVYACEVTHQGLSSPVTKSFNRGEC
notes: also called Ho Ab T335_18N
Regarding B15, the Ho/Con_2aH is 98 % of control.

B16: GpH7-B3 variant Y296_04F/GpL16-k0 (antibody, human IgG1, kappa)
heavy: not shown
light: DIVMTQSPLSLPVTPGEPASISCQASESLVHSNRNTYLHWYLQKPGQSPQLLIYKVSNRFSGVPDRFSGSGSGTDFTLKISRVEAEDVGVYYCSQNTHVPPTFGQGTKVEIERTVAAPSVFIFPPSDEQLKSGTASVVCLLNNFYPREAKVQWKVDNALQSGNSQESVTEQDSKDSTYSLSSTLTLSKADYEKHKVYACEVTHQGLSSPVTKSFNRGEC
notes: also called Ho Ab Y296_04F
On to B16, for which the Ho/Con_2aH was 95 % of control.

B17: GpH7-B3 variant A330_16H/GpL16-k0 (antibody, human IgG1, kappa)
heavy: not shown
light: DIVMTQSPLSLPVTPGEPASISCQASESLVHSNRNTYLHWYLQKPGQSPQLLIYKVSNRFSGVPDRFSGSGSGTDFTLKISRVEAEDVGVYYCSQNTHVPPTFGQGTKVEIERTVAAPSVFIFPPSDEQLKSGTASVVCLLNNFYPREAKVQWKVDNALQSGNSQESVTEQDSKDSTYSLSSTLTLSKADYEKHKVYACEVTHQGLSSPVTKSFNRGEC
notes: also called Ho Ab A330_16H
Consider B17, for which the Ho/Con_2aH is 101 % of control.

B18: GpH7-B3 variant S267_10E/GpL16-k0 (antibody, human IgG1, kappa)
heavy: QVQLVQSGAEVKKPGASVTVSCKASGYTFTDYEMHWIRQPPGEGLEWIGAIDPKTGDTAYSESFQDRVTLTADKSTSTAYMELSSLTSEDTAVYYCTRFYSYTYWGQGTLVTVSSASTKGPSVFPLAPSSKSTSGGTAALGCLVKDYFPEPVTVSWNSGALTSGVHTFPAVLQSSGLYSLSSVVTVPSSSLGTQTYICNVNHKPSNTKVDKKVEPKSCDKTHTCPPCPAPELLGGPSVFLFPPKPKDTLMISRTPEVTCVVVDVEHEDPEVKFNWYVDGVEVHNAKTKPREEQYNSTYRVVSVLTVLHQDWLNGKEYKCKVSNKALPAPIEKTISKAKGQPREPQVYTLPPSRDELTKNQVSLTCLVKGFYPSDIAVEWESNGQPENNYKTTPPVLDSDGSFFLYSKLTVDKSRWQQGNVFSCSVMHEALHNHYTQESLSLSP
light: DIVMTQSPLSLPVTPGEPASISCQASESLVHSNRNTYLHWYLQKPGQSPQLLIYKVSNRFSGVPDRFSGSGSGTDFTLKISRVEAEDVGVYYCSQNTHVPPTFGQGTKVEIERTVAAPSVFIFPPSDEQLKSGTASVVCLLNNFYPREAKVQWKVDNALQSGNSQESVTEQDSKDSTYSLSSTLTLSKADYEKHKVYACEVTHQGLSSPVTKSFNRGEC
notes: also called Ho Ab S267_10E
As to B18, the Ho/Con_2aH is 98.5 % of control.

B19: GpH7-B3 variant L234_20W/GpL16-k0 (antibody, human IgG1, kappa)
heavy: not shown
light: DIVMTQSPLSLPVTPGEPASISCQASESLVHSNRNTYLHWYLQKPGQSPQLLIYKVSNRFSGVPDRFSGSGSGTDFTLKISRVEAEDVGVYYCSQNTHVPPTFGQGTKVEIERTVAAPSVFIFPPSDEQLKSGTASVVCLLNNFYPREAKVQWKVDNALQSGNSQESVTEQDSKDSTYSLSSTLTLSKADYEKHKVYACEVTHQGLSSPVTKSFNRGEC
notes: also called Ho Ab L234_20W
As to B19, the Ho/Con_2aH was 55.3 % of control.

B20: GpH7-B3 variant S337_07I/GpL16-k0 (antibody, human IgG1, kappa)
heavy: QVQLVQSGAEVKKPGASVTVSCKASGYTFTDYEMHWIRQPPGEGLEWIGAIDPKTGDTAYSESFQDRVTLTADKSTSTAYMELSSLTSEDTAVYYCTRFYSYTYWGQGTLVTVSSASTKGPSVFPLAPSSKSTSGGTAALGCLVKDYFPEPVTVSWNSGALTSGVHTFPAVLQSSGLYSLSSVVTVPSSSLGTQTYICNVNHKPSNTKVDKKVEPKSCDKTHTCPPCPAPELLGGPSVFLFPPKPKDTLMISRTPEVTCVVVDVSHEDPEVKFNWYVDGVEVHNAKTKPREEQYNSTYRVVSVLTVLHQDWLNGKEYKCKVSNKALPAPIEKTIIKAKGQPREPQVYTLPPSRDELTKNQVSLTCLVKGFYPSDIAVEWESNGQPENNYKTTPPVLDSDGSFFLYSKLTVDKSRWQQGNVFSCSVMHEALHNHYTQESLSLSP
light: DIVMTQSPLSLPVTPGEPASISCQASESLVHSNRNTYLHWYLQKPGQSPQLLIYKVSNRFSGVPDRFSGSGSGTDFTLKISRVEAEDVGVYYCSQNTHVPPTFGQGTKVEIERTVAAPSVFIFPPSDEQLKSGTASVVCLLNNFYPREAKVQWKVDNALQSGNSQESVTEQDSKDSTYSLSSTLTLSKADYEKHKVYACEVTHQGLSSPVTKSFNRGEC
notes: also called Ho Ab S337_07I
As for B20, the Ho/Con_2aH was 94 % of control.

B21: GpH7-B3 variant K326_12R/GpL16-k0 (antibody, human IgG1, kappa)
heavy: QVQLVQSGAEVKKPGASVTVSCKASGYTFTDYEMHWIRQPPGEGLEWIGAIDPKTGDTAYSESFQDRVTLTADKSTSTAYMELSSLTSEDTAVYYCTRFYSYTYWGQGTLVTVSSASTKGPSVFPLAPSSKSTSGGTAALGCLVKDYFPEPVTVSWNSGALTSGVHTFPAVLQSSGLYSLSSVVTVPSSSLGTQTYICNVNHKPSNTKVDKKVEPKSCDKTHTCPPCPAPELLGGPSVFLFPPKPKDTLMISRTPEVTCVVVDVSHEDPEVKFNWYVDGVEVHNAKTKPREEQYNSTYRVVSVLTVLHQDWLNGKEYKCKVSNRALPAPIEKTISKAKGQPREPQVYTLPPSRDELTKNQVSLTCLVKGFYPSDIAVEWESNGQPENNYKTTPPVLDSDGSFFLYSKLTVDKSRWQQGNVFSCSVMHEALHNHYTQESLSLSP
light: DIVMTQSPLSLPVTPGEPASISCQASESLVHSNRNTYLHWYLQKPGQSPQLLIYKVSNRFSGVPDRFSGSGSGTDFTLKISRVEAEDVGVYYCSQNTHVPPTFGQGTKVEIERTVAAPSVFIFPPSDEQLKSGTASVVCLLNNFYPREAKVQWKVDNALQSGNSQESVTEQDSKDSTYSLSSTLTLSKADYEKHKVYACEVTHQGLSSPVTKSFNRGEC
notes: also called Ho Ab K326_12R
Consider B21, for which the Ho/Con_2aH was 98.8 % of control.

B22: GpH7-B3 variant T335_20W/GpL16-k0 (antibody, human IgG1, kappa)
heavy: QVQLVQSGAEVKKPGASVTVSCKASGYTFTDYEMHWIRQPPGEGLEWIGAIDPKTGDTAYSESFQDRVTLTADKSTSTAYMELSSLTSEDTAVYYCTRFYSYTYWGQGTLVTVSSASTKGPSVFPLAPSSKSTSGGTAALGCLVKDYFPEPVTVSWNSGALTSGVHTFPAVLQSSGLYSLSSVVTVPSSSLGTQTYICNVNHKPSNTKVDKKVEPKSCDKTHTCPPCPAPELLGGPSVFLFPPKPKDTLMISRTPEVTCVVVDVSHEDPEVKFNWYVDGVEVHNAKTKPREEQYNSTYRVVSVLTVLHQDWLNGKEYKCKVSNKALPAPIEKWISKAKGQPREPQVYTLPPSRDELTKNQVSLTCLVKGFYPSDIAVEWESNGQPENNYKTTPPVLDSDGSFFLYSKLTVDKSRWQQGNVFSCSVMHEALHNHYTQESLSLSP
light: DIVMTQSPLSLPVTPGEPASISCQASESLVHSNRNTYLHWYLQKPGQSPQLLIYKVSNRFSGVPDRFSGSGSGTDFTLKISRVEAEDVGVYYCSQNTHVPPTFGQGTKVEIERTVAAPSVFIFPPSDEQLKSGTASVVCLLNNFYPREAKVQWKVDNALQSGNSQESVTEQDSKDSTYSLSSTLTLSKADYEKHKVYACEVTHQGLSSPVTKSFNRGEC
notes: also called Ho Ab T335_20W
Regarding B22, the Ho/Con_2aH was 98.7 % of control.

(Values after US20150344570A1 (published 2015).)
